These results are taken from PMC8934652.

For series [1], the target named is T1, CELF1 RRM1/2 (UniProt Q92879 1-187). Put plainly: FP.
The target in series [2] is CELF1 RRM1/2 S147A (UniProt Q92879 1-187, S147A). Put plainly: FP.
The target of series [3] is T1, CELF1 RRM1/2. Put plainly: FP competition.

T1 sequence (Q92879 1-187): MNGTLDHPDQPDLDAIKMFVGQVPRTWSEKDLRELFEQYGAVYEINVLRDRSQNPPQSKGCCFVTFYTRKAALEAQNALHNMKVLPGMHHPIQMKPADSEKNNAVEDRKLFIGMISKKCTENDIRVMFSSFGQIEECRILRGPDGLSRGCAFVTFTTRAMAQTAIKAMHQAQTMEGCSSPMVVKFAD
Chain of CELF1 RRM1/2 S147A (Q92879 1-187 S147A): as the sequence (Q92879 1-187) above, with S147A counted along it

B1: GU probe (ssRNA)
RNA: UUGUUGUU
For the molecule B1, the binding result in series [1] and in series [2] was “binds” in each case.

B2: GU cold probe (ssRNA)
RNA: UUGUUGUU
For the molecule B2, in series [3], the binding result is given as “binds”.
